{"source": "paper PMC10014536", "target": "bovine rhodopsin (bovine) (UniProt P02699)", "sequence (P02699 whole entry)": "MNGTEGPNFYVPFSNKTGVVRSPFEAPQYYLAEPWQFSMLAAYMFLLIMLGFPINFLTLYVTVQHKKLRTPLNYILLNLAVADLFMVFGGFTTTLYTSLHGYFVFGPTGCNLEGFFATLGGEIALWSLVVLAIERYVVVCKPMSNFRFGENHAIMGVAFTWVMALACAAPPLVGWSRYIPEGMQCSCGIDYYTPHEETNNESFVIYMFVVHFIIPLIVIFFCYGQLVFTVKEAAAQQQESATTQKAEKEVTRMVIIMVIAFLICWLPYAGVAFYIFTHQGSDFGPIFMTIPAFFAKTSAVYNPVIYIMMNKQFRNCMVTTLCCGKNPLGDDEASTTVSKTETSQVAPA", "data": [{"substance": "Gso (Gs subunit chimera with a Go tail)", "values": [{"measurement": "light-evoked second messenger (cAMP) plate reader assay in transfected HEK293 cells, G-protein subtype profile of bovine rhodopsin (Supplementary Figure S5)", "result": 10, "unit": "%"}]}]}
